Measurements reported in article PMC8640019 (Nature Communications, 2021).
“And” between values parts separate entries of the source, which are not always exact repeats. Identical values can stand only once. Square brackets hold non-standard residues; d marks the D form. Ends that are not written are not given here. pY = N[C@@H](Cc1ccc(OP(=O)(O)O)cc1)C(=O)O

B1: Cullin5 N-terminal domain (Cul5^1-384) (domain or fragment)
chain: MATSNLLKNKGSLQFEDKWDFMRPIVLKLLRQESVTKQQWFDLFSDVHAVCLWDDKGPAKIHQALKEDILEFIKQAQARVLSHQDDTALLKAYIVEWRKFFTQCDILPKPFCQLEITLMGKQGSNKKSNVEDSIVRKLMLDTWNESIFSNIKNRLQDSAMKLVHAERLGEAFDSQLVIGVRESYVNLCSNPEDKLQIYRDNFEKAYLDSTERFYRTQAPSYLQQNGVQNYMKYADAKLKEEEKRALRYLETRRECNSVEALMECCVNALVTSFKETILAECQGMIKRNETEKLHLMFSLMDKVPNGIEPMLKDLEEHIISAGLADMVAAAETITTDSEKYVEQLLTLFNRFSKLVKEAFQDDPRFLTARDKAYKAVVNDATIFK
B2: SOCS2-SH2^32–159 (domain or fragment, human, UniProt O14508 32-159, looked up)
chain: QAARLAKALRELGQTGWYWGSMTVNEAKEKLKEAPEGTFLIRDSSHSDYLLTISVKTSAGPTNLRIEYQDGKFRLDSIICVKSKLKQFDSVVHLIDYYVQMCKDKRTGPEAPRNGTVHLYLTKPLYTS

Assays:
SOCS2-Elo B/C + F3 [1] = target: T1, SOCS2-Elo B/C + F3 (human, UniProt O14508 32-198; Q15370 1-118; Q15369 17-112); experiment: ITC
SOCS2-Elo B/C + F3 [2] = target: T1, SOCS2-Elo B/C + F3; experiment: ITC; remark: listed apart in the source
F3 peptide = experiment: NMR titration

T1 sequence (Q15370 whole entry, chain 2 of 2): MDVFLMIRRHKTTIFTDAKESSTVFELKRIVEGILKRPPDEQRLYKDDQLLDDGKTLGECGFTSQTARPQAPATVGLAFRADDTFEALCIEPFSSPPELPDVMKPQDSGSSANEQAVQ
T1 sequence (Q15369 17-112, chain 3 of 2): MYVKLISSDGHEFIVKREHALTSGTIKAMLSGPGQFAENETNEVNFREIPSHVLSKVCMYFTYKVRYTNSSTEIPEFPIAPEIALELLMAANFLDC

Binder	stoichiometry N (SOCS2-Elo B/C + F3 [1])	Kd (SOCS2-Elo B/C + F3 [2]) [nM]	binding result (F3 peptide)
B1	0.81	41	
B2			binds
STASTVQ[pY]STVVHSG [gp130 pY757 peptide]	0.738 and 0.632		
